In patent US11319366B2, “Antibody facilitating programmed necrosis of cells and application thereof” (SHANGHAI JW INFLINHIX CO., LTD., priority 2015, dated 2022):
Entries after “also recorded” stand apart in the source; their conditions may differ.

How the values were obtained:
L929 cells = test: Apoptosis and necrosis assay (live/dead staining, active caspase-3, flow cytometry) in L929 cells; type: cell-based, mouse
Procedure: (§1) The cells were stained with live/dead cell staining kits (Invitrogen, Paisley, UK) instructed by the manufacturer's manual and fixed using cytofix/cytoperm fixation/permeabilization solution kits (BD Pharmingen, Oxford, UK). This was followed by intracellular staining with FITC-conjugated anti-caspase-3 antibody (Cell Signaling Technology, Danvers, Mass., USA). Cells were acquired on a CyAn flow cytometer (Beckman Coulter, Fullerton, Calif.) and data were analyzed using Flowjo (Tree Star Inc. Ashland, Oreg.).

[1] = tested on: TNF receptors on L929 cells; test: L929 cells immunofluorescence (confocal) microscopy of TNF/antibody binding to TNF receptors; type: cell-based, mouse
Procedure: The cells were fixed with 4% paraformaldehyde (in PBS) for 10 min, blocked in a phosphate-buffer containing 0.5% BSA and 0.1% cold water fish-gelatin for 15 min and subsequently incubated with rabbit anti-TNFR1 antibodies (Abcam) for 1 hour. The cells were extensively washed in PBS and then incubated with the relevant secondary antibodies, which were conjugated with Alexa Fluor 488 or Alexa Fluor 568 21 (Invitrogen). PBS-washed specimens were then mounted in Gelvatol/DABCO (Sigma-Aldrich). DNA was counterstained with DAPI (Sigma-Aldrich). All samples were analyzed by fluorescent microscopy using a Nikon Eclipse 80i at 60×. Images were acquired with NIS-Elements AR3.0 software using a Hamamatsu camera.

[2] = tested on: C28I2 cells (chondrocytes); test: Apoptosis assay (active caspase-3) in C28I2 cells; type: cell-based, human; conditions: C28I2 cells stimulated by TNF
Procedure: as §1

TNF [3] = biological target: T1, TNF (Homo sapiens, UniProt P01375); test: ELISA screening of monoclonal antibodies for binding to TNF; conditions: among 33 monoclonal antibodies
T1 construct: purchased Immunotools (Germany)
Procedure: A second antibody conjugated with HRP was used to detect the reaction. For the inhibition assay, TNFR1 or synovial fluids were added together with monoclonal antibodies.

TNF [4] = biological target: T1, TNF; test: Identification of binding epitope of the monoclonal antibody

T1 sequence (P01375 77-233 limits assumed): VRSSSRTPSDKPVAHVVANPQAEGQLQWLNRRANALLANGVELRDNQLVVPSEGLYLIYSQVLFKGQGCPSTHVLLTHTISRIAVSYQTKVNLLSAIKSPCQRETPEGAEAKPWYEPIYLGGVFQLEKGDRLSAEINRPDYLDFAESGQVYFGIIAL

| binding to TNF by ELISA (TNF [3]) | binding epitope (TNF [4]) | Molecule | effect on necrosis caused by 244-12+TNF (L929 cells; L929 cells, added into 244-12+TNF) | effect on binding of TNF to TNF receptors ([1]; confocal microscopy, in the presence of TNF) | direct binding of antibody to cell surface ([1]; in the absence of TNF) | TNF-induced apoptosis (active caspase-3 expression) [2] | TNF-induced apoptosis (active caspase-3 expression) (L929 cells; L929 cells stimulated by TNF) | cell fate (apoptosis / survival / necrosis) of L929 cells (L929 cells; L929 cells, TNF alone or antibody added with TNF) |
| --- | --- | --- | --- | --- | --- | --- | --- | --- |
| – | – | CN1C(=O)C(Cc2c[nH]c3ccccc23)NC1=S (centres unmarked) [Nec-1, Necrostatin-1, reference compound] | cell necrosis was conversed into apoptosis; also recorded: cell necrosis transformed into apoptosis | – | – | – | – | – |
| bound TNF the strongest | QLVVPSE | 244-12: anti-TNF monoclonal antibody specifically binding QLVVPSE; light chain SEQ ID NO: 10, heavy chain SEQ ID NO: 21 (antibody, listed as Homo sapiens) heavy: QIQLVQSGPELKKPGETVKISCKASGYTFTNYGMNWVKQAPGKGLKWMGWINTYTGEPTYADDFKGRFAFSLETSANTAYLQINNLRNEGMATYFCARHYRYAWFPYWGQGTLVTVSAAKTTPPSVYPLAPGCGDTTGSSVTLGCLVKGYFPESVTVTWNSGSLSSSVHTFPALLQSGLYTMSSSVTVPSSTWPSQTVTCSVAHPASSTTVDKKLEPSGPISTINPCPPCKECHKCPAPNLEGGPSVFIFPPNIKDVLMISLTPKVTCVVVDVSEDDPDVQISWFVNNVEVHTAQTQTHREDYNSTIRVVSTLPIQHQDWMSGKEFKCKVNNKDLPSPIERTISKIKGLVRAPQVYILPPPAEQLSRKDVSLTCLVVGFNPGDISVEWASNGHTEENYKDTAPVLDSDGSYFIYSKLNMKTSKWEKTDSFSCNVRHEGLKNYYLKKTISRSPGK light: DIQMTQSPASLSASVGETVTITCRASGNIHIYLAWYQQKQGKSPQLLVYNAKTLADGVPSRFSGSGSGTQYSLKINSLQPEDFGSYYCQHFWSIPWTFGGGTKLEIKRADAAPTVSIFPPSSEQLTSGGASVVCFLNNFYPKDINVKWKIDGSERQNGVLNSWTDQDSKDSTYSMSSTLTLTKDEYERHNSYTCEATHKTSTSPIVKSFNRNEC | – | does not affect the binding of TNF to cell surface receptors | can not directly bind to cell surface | blocks TNF-induced apoptosis | apoptosis was inhibited; also recorded: blocks TNF-induced apoptosis | necrosis of L929 cells occurred; also recorded: necrosis of L929 cell |
